Experimental data published in publication PMC9328677.

B1: truncated APLF^AD construct corresponding to residues 449 to 490 (APLF^AD-Δ) [Homo sapiens] / stoichiometric mixture of full-length Drosophila melanogaster -H2B and H3-H4 (octamer-mix) [Drosophila … (parent)
chain 1: GLDEDNDNVGQPNEYDLNDSFLDDEEEDYEPTDEDSDWEPGKE
chain 2: not shown
chain 3: not shown
chain 4: not shown
chain 5: not shown

Variants of: B1
Experiment: ITC
Conditions: with stoichiometric mixture of full-length Drosophila melanogaster H2A-H2B and H3-H4 (octamer-mix) [Drosophila melanogaster]

Row | Kd | Variant
1 | 1220 nM | chain 1 Y15A F21A Y29A W38A
